We go through 5 molecules from patent publication US20200010567A1 (NEURIMMUNE, published 2020).

In general, EC50 refers to the midpoint of the concentration-response curve.

One experiment addresses T1, GA4: H-(GA)4HHHHHH-NH2.
T1 peptide: H-GAGAGAGAHHHHHH-NH2
The experiment is described as follows: indirect ELISA, His-tagged peptide coated at 50 ug/ml, antibody titrated [also D00025 FIG. 7I]. On the procedure: (§1) 96-well microplates (Corning Incorporated, Corning, USA) were coated with dipeptide repeat protein peptides at a concentration of 50 μg/ml in coating buffer (15 mM Na₂CO₃, 35 mM NaHCO₃, pH 9.42). Non-specific binding sites were blocked for 1 h at room temperature with PBS/0.1% Tween®-20 containing 2% BSA (Sigma-Aldrich, Buchs, Switzerland). Primary antibodies were diluted to the indicated concentrations and incubated 1 h at room temperature, followed by incubation with a donkey anti-human IgG Fcγ-specific antibody conjugated with HRP (Jackson ImmunoResearch Laboratories, Inc., West Grove, USA). Binding was determined by measurement of HRP activity in a standard colorimetric assay. EC₅₀ values were estimated by non-linear regression using GraphPad Prism software (San Diego, USA).
(§2) High affinity binding was detected for poly-GA DPRs harboring 10 or 20 (GA)-repeats, reflected in an EC₅₀ in the subnanomolar or low nanomolar range (FIGS. 7A, 7C-7I).
(ELISA stands for enzyme-linked immunosorbent assay.)

Experiment [1] addresses T2, GA5: H-(GA)5HHHHHH-NH2.
T2 peptide: H-GAGAGAGAGAHHHHHH-NH2
The experiment is described as above. The procedure:
as §1, §2

A further experiment deals with T3, GA3: H-(GA)3HHHHHH-NH2.
T3 peptide: H-GAGAGAHHHHHH-NH2
The experiment is described as above. The procedure: as §1, §2

In the next experiment the target is T4, GA2: H-(GA)2HHHHHH-NH2.
T4 peptide: H-GAGAHHHHHH-NH2
Described as above. On the procedure:
as §1, §2

Another experiment concerns the target T5, GP20: H-(GP)20HHHHHH-NH2 (C-terminal amide).
T5 peptide: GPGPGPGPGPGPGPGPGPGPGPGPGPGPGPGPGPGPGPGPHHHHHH
The experiment is described as follows: indirect ELISA, coated His-tagged peptide. A digest of the protocol: (§3)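 His-tagged dipeptide-repeat peptides coated at 50 μg/ml in carbonate buffer pH 9.42; blocked with 2% BSA in PBS/0.1% Tween-20. Human antibodies titrated, 1 h at room temperature, detected with HRP anti-human IgG Fcγ by colorimetric read-out. EC₅₀ from non-linear regression.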

In experiment [2] the target is T2, GA5: H-(GA)5HHHHHH-NH2. The experiment is described as follows: indirect ELISA, coated His-tagged peptide. A digest of the protocol:
as §3

The target of the next experiment is T6, GA6: H-(GA)6HHHHHH-NH2.
T6 peptide: H-GAGAGAGAGAGAHHHHHH-NH2
The experiment is described as follows: indirect ELISA, coated His-tagged peptide; indirect ELISA, peptide coated directly on the plate. The source says:
In brief, dipeptide repeat proteins were synthesized and purified by Schafer-N (Copenhagen, Denmark): GA₂₀: H-(GA)₂₀HHHHHH-NH₂; GA₁₀: H-(GA)₁₀HHHHHH-NH₂; GA₆: H-(GA)₆HHHHHH-NH₂; GA₅: H-(GA)₅HHHHHH-NH₂; GA₄: H-(GA)₄HHHHHH-NH₂; GA₃: H-(GA)₃HHHHHH-NH₂; GA₂: H-(GA)₂HHHHHH-NH₂; GP₂₀: H-(GP)₂₀HHHHHH-NH₂; GP₁₀: H-(GP)₁₀HHHHHH-NH₂; GP₆: H-(GP)₆HHHHHH-NH₂; GP₅: H-(GP)₅HHHHHH-NH₂; GP₄: H-(GP)₄HHHHHH-NH₂; GP₃: H-(GP)₃HHHHHH-NH₂; GP₂: H-(GP)₂HHHHHH-NH₂. GR₂₀: H-(GR)₂₀HHHHHH-NH₂; GR₁₀: H-(GR)₁₀HHHHHH-NH₂; GR₆: H-(GR)₆HHHHHH-NH₂; GR₅: H-(GR)₅HHHHHH-NH₂; GR₄: H-(GR)₄HHHHHH-NH₂; GR₃: H-(GR)₃HHHHHH-NH₂; GR₂: H-(GR)₂HHHHHH-NH₂; PA₂₀: H-(PA)₂₀HHHHHH-NH₂; PA₁₀: H-(PA)₁₀HHHHHH-NH₂; PA₆: H-(PA)₆HHHHHH-NH₂; PA₅: H-(PA)₅HHHHHH-NH₂; PA₄: H-(PA)₄HHHHHH-NH₂; PA₃: H-(PA)₃HHHHHH-NH₂; PA₂: H-(PA)₂HHHHHH-NH₂; PR₂₀: H-(PR)₂₀HHHHHH-NH₂; PR₁₀: H-(PR)₁₀HHHHHH-NH₂; PR₆: H-(PR)₆HHHHHH-NH₂; PR₅: H-(PR)₅HHHHHH-NH₂; PR₄: H-(PR)₄HHHHHH-NH₂; PR₃: H-(PR)₃HHHHHH-NH₂; PR₂: H-(PR)₂HHHHHH-NH₂. 96-well microplates (Corning Incorporated, Corning, USA) were coated with dipeptide repeat protein peptides at a concentration of 50 μg/ml in coating buffer (15 mM Na₂CO₃, 35 mM NaHCO₃, pH 9.42). Non-specific binding sites were blocked for 1 h at room temperature with PBS/0.1% Tween®-20 containing 2% BSA (Sigma-Aldrich, Buchs, Switzerland). Primary antibodies were diluted to the indicated concentrations and incubated 1 h at room temperature, followed by incubation with a donkey anti-human IgG Fcγ-specific antibody conjugated with HRP (Jackson ImmunoResearch Laboratories, Inc., West Grove, USA). Binding was determined by measurement of HRP activity in a standard colorimetric assay. EC₅₀ values were estimated by non-linear regression using GraphPad Prism software (San Diego, USA).

The target of experiment [3] is T7, (GA)15: H-CHHHHHH(GA)15-OH.
T7 construct: synthetic, not coupled to BSA; also called poly-GA DPR protein peptide
T7 peptide: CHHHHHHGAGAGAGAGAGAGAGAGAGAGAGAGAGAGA
Nature of the experiment: indirect ELISA, uncoupled peptide coated, antibody titrated [also D00012 FIG. 3C]. The procedure: as §1, with “In brief, dipeptide repeat proteins were synthesized and purified by Schafer-N(Copenhagen, Denmark): (GA)₁₅: H-CHHHHHH(GA)₁₅-OH; (GP)₁₅: H-C(GP)₁₅-OH; (GR)₁₅: H-C(GR)₁₅-OH; (PA)₁₅: H-C(PA)₁₅-OH; (PR)₁₅: H—C(PR)₁₅-OH. DPR protein peptides were then conjugated via a bifunctional linker (SMCC) to bovine serum albumin (BSA). 96-well microplates” for “96-well microplates”, “coated with BSA-coupled or -uncoupled dipeptide repeat” for “coated with dipeptide repeat”, “concentration of either 5 μg/ml or 20 μg/ml in” for “concentration of 50 μg/ml in”

B1: NI-308.45C2 (antibody, V domains shown)
VH: QLQLQESGPGLVKPSQILSLTCAISGDSVFSNSAAWNWIRQSPSRGLEWLGRTYYRSKWDNDYAPSVKSRISINPDTSKNQFSLQLNSVTPEDTAVYYCAREVAYCGGDCYSVSFDYWGQGTLVTVSS
VL: not shown
notes: Recombinant complete human IgG1, kappa
For B1, the binding result in the experiment with GA4: H-(GA)4HHHHHH-NH2, with GA5: H-(GA)5HHHHHH-NH2 [1], with GA3: H-(GA)3HHHHHH-NH2 and in the experiment with GA2: H-(GA)2HHHHHH-NH2 was “no binding (tested: about 4x10^5 pM (last point))” each time.

B2: NI-308.5G2 (antibody, V domains shown)
VH: EVQLVQSGADLRNPGASVTVSCTASGYHFADNAINWLRQAPGQRLEWMGWINIYSGNTKYSQNFQGRVTFTRNTSASTAFMHLRSLRSEDTAVYFCARDPDSSGYYLPYFDYWGQGTLVTVSS
VL: DIQLTQSPDSLTLSLGERATINCKSSQSVFYNSNNKNYLAWYQQKPGQPPKLLMYWASTRESGVTDRFSGSGSGTDFTLTITNLQAEDVAVYYCQQFYSSPLTFGGGTKVEIK
notes: as for B1
B2 displayed an EC50 with GP20: H-(GP)20HHHHHH-NH2 of 0.47 nM.

B3: NI-308.28G1 (antibody, V domains shown)
VH: QVQLQESGPRLVKPSETLSLTCTVAGGSVNSYYWTWIQQSPGKGLEWLGRIYIAGRTNYNPSLTSRIALSVDTSRNQLSLKLTSVTAADTAIYYCARWGAESGDYYYGVDVWGPGTLVTVSS
VL: EIVMTQSPLSLPVTPGEPASISCKSSEGLLHSNGYTYLDWYLQKPGQAPQLLIFLASNRAAGVPDRFSGSGSGTDFTLKISRVEAEDVGVYYCMQAIQSPWTFGPGTKVEIK
notes: as for B1
Regarding B3, the EC50 was over 200 nM with GA5: H-(GA)5HHHHHH-NH2 [2] and 6.3 nM in the experiment with GA6: H-(GA)6HHHHHH-NH2.

B4: NI-308.46E9 (antibody, V domains shown)
VH: QVQLQESGPGLVKPSETLSLTCTVSGASISGSTYYWGWIRQPPGKGLEYIGRIYYSGSTYYNPSLKSRATISVDTSKNQLSLTLSSVTAADTAVYYCVRPFYAGSGNSPFDYWGQGTLVTVSS
VL: CEIVLTQSPATVSVSPGERATLSCRASQSVSTNLAWYQQKPGQPPRLLIYGASTRATGIPARFSGSGSGAEFTLTISSLQSEDFVVYYCQQYNNWPPAFGGGTKVEIK
notes: as for B1
As for B4, the EC50 in the experiment with GP20: H-(GP)20HHHHHH-NH2 was determined as 15.5 nM.

B5: NI-308.15O7 (antibody, V domains shown)
VH: QVQLVESGGGVVQPGRSLRLSCAASGFTFSNHAMHWVRQAPGKGLEWVAVISYDGENTYYADSIEGRFTISRDNFKNTLFLQMYSLTADDTAMYFCARGGRRGHFTSYYLDYWGQGTLVTVSS
VL: CDIQMTQSPSSLSASVGDRVTITCRASQNIDKYLNWYQQIPGKAPKLLIYAASSLHSGVPSRFSGSGSGTDFSLTISSLQPEDFAIYYCQQSYSSFRTFGQGTKLEIK
In the case of B5, the EC50 is over 150 nM with GA5: H-(GA)5HHHHHH-NH2 [2], 7.9 nM in the experiment with GA6: H-(GA)6HHHHHH-NH2 and 0.18 nM in experiment [3].
